Test: soluble on expression in E. coli; label from the status in PepcDB or PDB records

Sequence | soluble on expression in E. coli
MSLMTLYPVVVQERTTGEVLMLAYANEEALELTKKTGYAHFFSRERQKIWKKGETSGNTMRVVEIRRDCDDDAYLYIVDFPEDKVACHTGNRSCFFKVEHRFEETGSPTFWLELYRLVRKRKEEMPEGSYTVKLFKEGKGKIAKKFGEEAVEVITGYLQNDRENLVWEIADMMYHLTVLMADAGVTVQDVMRELEKRRKEGHHHHHH | soluble
MSLNDEMKGKSGKVKVMYVRSDDDSDKRTHNPRTGKGGGRPGKSRADGGRRPARDDKQSQPRDRKWEDSPWRTVSRAPGDETPEKADHGGISGKSFIDPEVLRRQRAEETRVYGENACQALFQSRPEAIVRAWFIQSVTPRFKEALRWMAANRKAYHVVDEAELTKASGTEHHGGVCFLIKKRNGTTVQQWVSQAGAQDCVLALENESNPHNLGGMMRSCAHFGVKGVVVQDAALLESGAAIRTAEGGAEHVQPITGDNIVNVLDDFRQAGYTVVTTSSEQGKPLFKTSLPAKMVLVLGQEYEGLPDAARDPNDLRVKIDGTGNVAGLNISVATGVLLGEWWRQNKAEGHHHHHH | soluble
MSLNDGNAMGQVIQIDEARIRDHLGEMVRGTVEETLNAMLEAEADQLCGAGRYERSPARQDTRAGSYERTLQTKAGDVNLKVPKLRRQTFETAIIERYRRRESSVEEALIEMYLAGISVRRVEDITEALWGTRVSPSTVSNLNKKIYAKIEAWRNRRIEGEHPYLYLDGIVMKRSWAGEVRNVSLLVASAVNAEGFREILGICEGAKEDKSGWSSFLRHLVDRGLKGVQLVVSDACRGLVESVADYLPEARYQRCMVHFYRNVFSHVPSTRVHEVSHMLKAIHAQESRAAADEKARTVIADLRASRMAKAADLVEQAVHETLAYYAFPDIHWRKIRTNNPLERIMKEIRRRTRVVGAFPDGQSCLNLAAARLRHIAGTAWSTKCYMNMRPLYQPQLSETGAVAEGHHHHHH | soluble
MSLNDLLVGLLLPEKENTRYEQFDYPFFKKKVGELTRDEGIVKYANAEASATKQADQMQQMIEDKVDVIVLDAVDAHAIADGVQKAKDAGIPVIAYDRLAEGPIDAYISFDNELVGEVQGRSLIEALGGDPESSAKIVMMNGSSTDPNAKQFKAGALSELNGKVTIAQSFDTKDWKPENAEANMTEAIEKIGKKKIAGVYSANDGMAGGVIKALEDAGVTDLPPITGQDAELAAVQRIVTGEQYMSVYKSYPQEAENAAEMAVARVQGRDIQFDALARDKVDSPTHKGIPAQLVPVVALTKANIEETVVAEGHHHHHH | soluble
MSLNDLVMDVDLDFADGQSPMRTKKANEIIRDPISGSVVIPIDADKFPKESHNSPLVFKLGNGANENIMHVKSQKDVNLYPVPLSTSDFSENFINYICNLFDIYQDLGSHRIFSRPTIGVISSDYELEHTRVVNMALDSMIIELEILIASYDKLENANIARILELEQCLVILQCLRTFQFIDSINDRATFFDSLLKWTNRTDGEPKVEYIQSIFGQSDSSQVFFTEPFWKLVYQLLLRGLTEQAINTLEKSELAKYLKENCETTSTIFEDFIQLVKNYPLESEEHFREWKSFALELQQNFEDADTKIPVPLRKNLLDAISITAGNRDKILQHSSFWYESLTGFLLYYIPSEELIQEYVGLAVSKTPIDVTNPWETACLKILQNDIFPVLPILESLDNCTASFSAALCESKGLLIDRYTILEENSGSDDIEIDDIFSQRNGMASFLLNNFALELCSMKMKTLWPVAIGLISLSPYNTPSSKKSTIAELIPHYPFETNDDIEWALSVCAKWRLPDIAKEIYTTLGNQMLDNGNTVEAIANFSKAGQYELVKHYSWLLFENAAFQGKPMEDEVLSAIVDGDFNTSELIPDEVLNKVVTNAMRQSLSPYAVLSQFFSNVENERWSKALQQLMSLIEFEYLPKKYTVLLIVKYMYPLFLNDDQRMIDEETLVSLLAAIEKNWDCDDTDSVIAYEKLSEEIADLPKELKSMEKLIRKKLNGKLCLNLMIEGHHHHHH | soluble
MSLNDSRLLPVGSSPLEVAAARACAEIERTPVNIRALWNPDTCPENLLPWLAWAFSVDRWDENWPEGTKRAVIRDAYFIHCHKGTIGAIRRVVEPLGYVINVTEWWESSDPPGTFRLDIGVLESGITEEMYFEMERLIADAKPASRHLTGLNIVQDIPGYLYTGGVSCDGDIITVYPGEGHHHHHH | not soluble
MSLNEIDNKLFLVYVGGTAPGANIELHDIRFVVGPSMEETYPAIRKGWFGTQKGLHLDSFVHLHHVDGYRIHLTSEAHEKPEEKRLYFVNFGGYFPNKLAEYHDFTVVVADSPQSAKQLARAQFSKAGLADAEQIHKDDLLAVDDCLCVDLVDNHYVTLEFDGEQQPLVPDWKGYQPLPEGHHHHHH | soluble
MSLNEPLAERIRPKTLEDYVSQQHLVGENGILTKLIKQGIIPSLILWGPPGIGKTTLANIIATTSNRPFYTLSAISSGVKDVRDVIEKAKKSGGLFTAKNPILFIDEIHRFSKSQQDSLLGAVEKGWVTLIGATTENPSFEVIPALLSRCQIYILNSFDKEELIALLHRAMEKDAFLSSKKIILKETEALLQVSGGDARKLLNIFELLVSVDDEVVITNELVLSKIQKNTARYDKSGPQHYDIVSAFIKSIRGSDPNAAVYWLARMIEGGEDVKFIARRMLILASEDIGNANPTALIMANNTFQAVAIVGNPESRIILSQCAIYLSNSAKSNASYLAIGAAQKLVQETGDLSVPLNLRNAPTKLMKDLDYGADYKYSHDYPNSFVAQEFLPKTLSGNKIYTPGKNPREQQFKEVLKNRWKNKYEGHHHHHH | not soluble
MSLNFHDVRFPPSLSFGSLGGPQRRTDVVTLANGYEERNTPWAHSRRVYDAGLGMRSIDDVQALTGFFEARMGQMYGFRWKDWADFKSCASSVGVTFEDQSLGFGDGVRTDYQLVKTYSSGGHSYVRPITKPVAGTVRVGIEQDALQEGSDYEVDLSTGIIRFAHAPDPEMQVSAGFEFDVPVRFDTDRILVSVASFQAGQVPDVPVIEVRVEGHHHHHH | soluble
MSLNFTLHTLNGIKLWLVLLLLSGAINVCRADSPRQTINFNRGWKYCQGDFDHAARPGFDDSEWEKIGLPHSFSTPYFMSKDFYVGYGWYRKAFPVKKEILGKKSFLEFDGVFQEAEIFVNGHLAGTHKGGYTGFSIDISAYLKEGKNLVAVRVNNCWRPDLAPRAGEHVFSGGIYRNVRLVIKPPTYIDWYGTWITTPDLAENKGKSGSVHIRTDVCNASGKTDTYRLLTTVVDAQGKEVSSVSTSQVLPDNATYTFEQQTKEIQAPQLWHPNHPALYKVISSLYHGQELIDRYETAFGFRWFEWTADRGFFLNGEHLYFKGANVHQDHAGWGDAVTETGMRRDIRLVKEAGFDLIRGSHYPHSPAFSQACDEIGMLFWAENAFWGIGGHKGDGYWNASAYPVNESDRAEFENSVKAQLKELIRIHRNHPSIIVWSMSNEPFFTAPETINPMRKLLEETVKLSKQLDPTRPAAVGGAQRPLGEKRIDKLGDIAGYNGDGSYIPEFQQPGMPTVVSEYGSTTADRPGEYDPGWGDLAKNNAQNGFPWRSGQAIWCAFDHGSIAGSALGKMGIIDYFRIPKRAWYWYRNAYKGITEGHHHHHH | not soluble
MSLNGGVTELSVWSGFTENDGKVVQSIADDFNKSQSNVKVTIEQNPWNVINDKLLSSISAGNGPDVVTYQPDGAKGFIKQGAIVSTDDFYSDSSNETSHYRKNVVKDGEVDGKHYGVPMGHAPYSVYFNKAIFDAAGITEDQYPKTWDDLAALASKLTVDKDGDGTPDQYGIALADKDAGYLPIFLQGAGTDLVVDGKANLTSKKSKDTLTWIRDNFYAKKSSPSNLSLVDAQTLFCSGKAAMFWIGPWIVNAAKEKGIETGTFEMPKGPEKQVTEVAANYWYTTSQVDGNDAKKKAAYAWMKFFNNKKNQITWAVKANYPPNRTDVTADDMKSNNFVSQISPYMDHSSLLLGSVPSGFADVQSELNALGPKISESTGDLTDILQKSNDKIQGYIEEGHHHHHH | soluble
MSLNGKPAVFPEVKSIKITGNKALTTEEIREVMSTSTRNSFFGTGLFAGARRPFIADDFEKDISLIRKLYTFKGYFFADVEPTVKRSKNGDVSITIRIRENQPTLLDSLSYAGLDSIPENLRSRYLKKSLLKLQQIFSVEKLIEERDRTLDFFREHGYTFFHPDSIRITVDTLGLHAGVRFDISLPGRYAYGPVKVFVHDPLKKDNPAIAKTFVRDNVSVTIYGHQKFSPKVFSSAIAWKQGALTRQSLEQRTLENFGSTNLFSSISMQKDAARAGAIPITIDLDPAPKHQIEPKLLVDNRYGSLFVGGALSYENRNLFGAGQQLKLSTNYGRQLSSDTNVLSSLSADQYDKLIPYEFNIKADLVIPRLGKQGSYYNGTVEYAQSKLPVLLDSKRELIRATYSTRPTRVSKLDFDFFELEVARKDSLRGFQQLFKNDLAQNIGINPADPVAVNRGLDSLLQTRLNQTFRLRYSLSNREKSTRSKRSPIWNFSVTAEESGSLLWLIDKYIDKKSYAGFTDSDPQIFGTPYNQYVKLDTQLAVTKNLSPKRQVAARIALGWMSPYGKADTTPEDHRFYAGGSNSMRGWVFGTLGPGSCPNAAVSNFGADIKAELGLEYRIQFFKVFGQESGIALFTDAGNIWDRTGPYAFSLRSLTQDFAWDWGAGLRIGSPIGPFRFDFAWKLHDPANPQPWRFSQTKLTDFTFNFGIGETFEGHHHHHH | not soluble
MSLNHLNDKVNEIKDNFYGLIGHAYLEKYITKPIVDEDKLRFLYTMLAEKLPKKDTKLFTLSALLVDAALEIHEAVSLHNIQTDPIKKNRQLNVLAGDYYSSLYYYLLADSRHLPIIQVFSHSIQEINEYKMKLYDGKNIDFDEVKNNVDKVDTFLLQNLAEHFQLTTWKKAISVFFHLKRLVHEREAWINGKATPLMKAIVTELFGSNRPVDELKKDDQLQVLELWEEKVEEGKDHLLEHVKALLPKFERFFVDHLNDLFGPDYIHEKVAEEGEGHHHHHH | soluble
MSLNIAMTGATGYIGKHLSNYLTEKGGHRIIPLGRAMFREGMSGLLVQTLTHCDVIINLAGAPINQRWTPEHKQELFNSRITVTHRIIRALNAVKTKPKLMISASAVGYYPSLVESDEYTQTRGDGFLSDLCYAWEKEAKRCPQPTRLVITRFGVVLSPDGGAMQQMLRPLRATKVAAVIGPGTQPFPWIDIRDLCCAMAFFIENEELRGVFNLVAPQAVSQSTFTRAMGKAYHAWTTEGHHHHHH | not soluble
MSLNITGIQSDWKVEKIEFAKLTGERARSAGANGRIGVHGKSCTVDIARITIDGQTGYGSSIHMTPEWAEDVIGRRLLDLFDDRGRLREAYRLQLEYPVLDWLGQRQGKPVYDLVSGAHLETGASLVVPCYDTSLYFDDLHLADERAAVALMQEEAMQGYAKGQRHFKIKVGRGGRHMPLWEGTKRDIAIVRGISEVAGPAGKIMIDANNAYNLNLTKEVLAALSDVNLYWLEEAFHEDEALYEDLKEWLGQRGQNVLIADGEGLASPHLIEWATRGRVDVLQYDIIWPGFTHWMELGEKLDAHGLRSAPHCYGNAYGIYASGHLSAAVRNFEFVEYDDITIEGMDVSGYRIENGEIHVPATPGFGIVFDDELVTYLINRSGWSEGHHHHHH | soluble
MSLNKEQRRITAEELQAHFEESTLSVQMIAEKLNVTTEDVEKVLAMTAPLGIFSHQLQRFIHLVWDVRDVINDNIKGNGQTPEPYTYLKGEKEDYWFLR | not soluble
MSLNKKVVIGMSGGVDSSVAAYLLKEQGYDVIGVTMKLTPDDAFYTEQEGGCCSLSAVEDARRVAYRIGIPFYVVNFTDIFKEKVIDYFTEEYLNGKTPNPCIACNKYIKFDALLKKAESLGADYIATGHYCRIVEENGRYVIRKSEDEKKDQTYVMYNMTQDQLKHTLMPCGDYKKDRIREIAREIGLNVFDKKDSEEICFIPDNDHGGFIKRECPKAVKTGNFVDKEGKVLGKHKGIIYYTIGQRKGLGIATGKRVFVTNIDAMKNQVVIGEEEEIFENELISFKNNFIPFDKLTEPMEVDAKIRYNAKASKATIYPVDDENVKVKFEKPQRAITKGQSVVFYDGDLLVGGGIIKEGHHHHHH | not soluble

From the DeepSol protein solubility set
